This passage reports IC50 results from patent US20160272683A1 (Novo Nordisk, published 2016).

Numbered stars: 1 amine (or outer) side, 2 acyl side, 3 side chain; on linkers, the order of the positions; unused ones are H or OH. Side chains are listed from the residue outwards. Ends that are not written are not given here. * marks the point of attachment. C20 diacid = O=C(O)CCCCCCCCCCCCCCCCCCC(=O)*; C18 diacid = O=C(O)CCCCCCCCCCCCCCCCC(=O)*; C16 diacid = O=C(O)CCCCCCCCCCCCCCC(=O)*; γGlu = O=C(O)[C@H](CCC(=O)[*:2])N[*:1]; C14 diacid = O=C(O)CCCCCCCCCCCCC(=O)*; AEEA = NCCOCCOCC(=O)O

Assay [1] deals with rat amylin receptor (rat calcitonin receptor with rat RAMP 3) (rat) (UniProt P32214). Description: SPA competition vs 125I-rat amylin, membranes with rat CTR + rat RAMP3 (Assay VI).
In assay [2] the target is rat calcitonin receptor (rat) (UniProt P32214). Description: SPA competition vs 125I-calcitonin, membranes with rat CTR (Assay VIII).

B1: [N-terminal(C20 diacid-gGlu), des1, 9T, 21S, 23Y, 30S, 31G, 33Y]mimylin (peptide)
peptide: {C20 diacid-γGlu}-ASELSTATLGRLSAELHELSTYPRTETGSGSY-NH2
SMILES: CC(C)C[C@H](NC(=O)[C@H](CCCNC(=N)N)NC(=O)CNC(=O)[C@H](CC(C)C)NC(=O)[C@@H](NC(=O)[C@H](C)NC(=O)[C@@H](NC(=O)[C@H](CO)NC(=O)[C@H](CC(C)C)NC(=O)[C@H](CCC(=O)O)NC(=O)[C@H](CO)NC(=O)[C@H](C)NC(=O)CC[C@H](NC(=O)CCCCCCCCCCCCCCCCCCC(=O)O)C(=O)O)[C@@H](C)O)[C@@H](C)O)C(=O)N[C@@H](CO)C(=O)N[C@@H](C)C(=O)N[C@@H](CCC(=O)O)C(=O)N[C@@H](CC(C)C)C(=O)N[C@@H](Cc1c[nH]cn1)C(=O)N[C@@H](CCC(=O)O)C(=O)N[C@@H](CC(C)C)C(=O)N[C@@H](CO)C(=O)N[C@H](C(=O)N[C@@H](Cc1ccc(O)cc1)C(=O)N1CCC[C@H]1C(=O)N[C@@H](CCCNC(=N)N)C(=O)N[C@H](C(=O)N[C@@H](CCC(=O)O)C(=O)N[C@H](C(=O)NCC(=O)N[C@@H](CO)C(=O)NCC(=O)N[C@@H](CO)C(=O)N[C@@H](Cc1ccc(O)cc1)C(N)=O)[C@@H](C)O)[C@@H](C)O)[C@@H](C)O
A word on the IC50: it is the concentration that gives 50% inhibition. Turning to B1, the IC50 in assay [1] turned out to be 0.045 nM; in assay [2], 0.069 nM.

B2: [des1, 19K(C20 diacid-gGlu), 30S, 31G]mimylin (peptide)
peptide: ASELSTAALGRLSAELHK([γGlu-C20 diacid])LATLPRTETGSGSP-NH2
modifications: N-terminus assumed
SMILES: CC(C)C[C@H](NC(=O)[C@H](C)NC(=O)[C@H](C)NC(=O)[C@@H](NC(=O)[C@H](CO)NC(=O)[C@H](CC(C)C)NC(=O)[C@H](CCC(=O)O)NC(=O)[C@H](CO)NC(=O)[C@H](C)N)[C@@H](C)O)C(=O)NCC(=O)N[C@@H](CCCNC(=N)N)C(=O)N[C@@H](CC(C)C)C(=O)N[C@@H](CO)C(=O)N[C@@H](C)C(=O)N[C@@H](CCC(=O)O)C(=O)N[C@@H](CC(C)C)C(=O)N[C@@H](Cc1c[nH]cn1)C(=O)N[C@@H](CCCCNC(=O)CC[C@H](NC(=O)CCCCCCCCCCCCCCCCCCC(=O)O)C(=O)O)C(=O)N[C@@H](CC(C)C)C(=O)N[C@@H](C)C(=O)N[C@H](C(=O)N[C@@H](CC(C)C)C(=O)N1CCC[C@H]1C(=O)N[C@@H](CCCNC(=N)N)C(=O)N[C@H](C(=O)N[C@@H](CCC(=O)O)C(=O)N[C@H](C(=O)NCC(=O)N[C@@H](CO)C(=O)NCC(=O)N[C@@H](CO)C(=O)N1CCC[C@H]1C(N)=O)[C@@H](C)O)[C@@H](C)O)[C@@H](C)O
For the molecule B2, the figures for the IC50 in assay [1] and in assay [2] were 0.455 nM and 0.044 nM, respectively.

For {C20 diacid-γGlu-AEEA}-ASELSTAALGRLSAELHELATLPRTETGSGSP-NH2 [[N-terminal(C20 diacid-gGlu-OEG), des1, 30S, 31G]mimylin], the IC50 was determined as 0.146 nM in assay [1] and 0.044 nM in assay [2].

B3: [N-terminal(C18 diacid-gGlu), des1, 4G, 15Q, 21Q, 23Y, 30S, 31G, 32T, 33Y]mimylin (peptide)
peptide: {C18 diacid-γGlu}-ASGLSTAALGRLSQELHELQTYPRTETGSGTY-NH2
SMILES: CC(C)C[C@H](NC(=O)CNC(=O)[C@H](CO)NC(=O)[C@H](C)NC(=O)CC[C@H](NC(=O)CCCCCCCCCCCCCCCCC(=O)O)C(=O)O)C(=O)N[C@@H](CO)C(=O)N[C@H](C(=O)N[C@@H](C)C(=O)N[C@@H](C)C(=O)N[C@@H](CC(C)C)C(=O)NCC(=O)N[C@@H](CCCNC(=N)N)C(=O)N[C@@H](CC(C)C)C(=O)N[C@@H](CO)C(=O)N[C@@H](CCC(N)=O)C(=O)N[C@@H](CCC(=O)O)C(=O)N[C@@H](CC(C)C)C(=O)N[C@@H](Cc1c[nH]cn1)C(=O)N[C@@H](CCC(=O)O)C(=O)N[C@@H](CC(C)C)C(=O)N[C@@H](CCC(N)=O)C(=O)N[C@H](C(=O)N[C@@H](Cc1ccc(O)cc1)C(=O)N1CCC[C@H]1C(=O)N[C@@H](CCCNC(=N)N)C(=O)N[C@H](C(=O)N[C@@H](CCC(=O)O)C(=O)N[C@H](C(=O)NCC(=O)N[C@@H](CO)C(=O)NCC(=O)N[C@H](C(=O)N[C@@H](Cc1ccc(O)cc1)C(N)=O)[C@@H](C)O)[C@@H](C)O)[C@@H](C)O)[C@@H](C)O)[C@@H](C)O
Consider B3, for which the IC50 in assay [1] and in assay [2] was 0.013 nM each time.

B4: [N-terminal(C20 diacid-gGlu), des1, 4G, 9V, 15Q, 21Q, 23Y, 30S, 31Q, 32T, 33Y]mimylin (peptide)
peptide: {C20 diacid-γGlu}-ASGLSTAVLGRLSQELHELQTYPRTETGSQTY-NH2
SMILES: CC(C)C[C@H](NC(=O)CNC(=O)[C@H](CO)NC(=O)[C@H](C)NC(=O)CC[C@H](NC(=O)CCCCCCCCCCCCCCCCCCC(=O)O)C(=O)O)C(=O)N[C@@H](CO)C(=O)N[C@H](C(=O)N[C@@H](C)C(=O)N[C@H](C(=O)N[C@@H](CC(C)C)C(=O)NCC(=O)N[C@@H](CCCNC(=N)N)C(=O)N[C@@H](CC(C)C)C(=O)N[C@@H](CO)C(=O)N[C@@H](CCC(N)=O)C(=O)N[C@@H](CCC(=O)O)C(=O)N[C@@H](CC(C)C)C(=O)N[C@@H](Cc1c[nH]cn1)C(=O)N[C@@H](CCC(=O)O)C(=O)N[C@@H](CC(C)C)C(=O)N[C@@H](CCC(N)=O)C(=O)N[C@H](C(=O)N[C@@H](Cc1ccc(O)cc1)C(=O)N1CCC[C@H]1C(=O)N[C@@H](CCCNC(=N)N)C(=O)N[C@H](C(=O)N[C@@H](CCC(=O)O)C(=O)N[C@H](C(=O)NCC(=O)N[C@@H](CO)C(=O)N[C@@H](CCC(N)=O)C(=O)N[C@H](C(=O)N[C@@H](Cc1ccc(O)cc1)C(N)=O)[C@@H](C)O)[C@@H](C)O)[C@@H](C)O)[C@@H](C)O)C(C)C)[C@@H](C)O
For B4, the concentration for half-maximal inhibition (IC50) in assay [1] worked out at 0.053 nM; in assay [2], 0.016 nM.

On to {C16 diacid-γGlu}-ASELSTAALGRLSAELHELATLPRTETGSGSP-NH2 [[N-terminal(C16 diacid-gGlu), des1, 30S, 31G]mimylin], for which the results for the IC50 in assay [1] and in assay [2] were 0.022 nM and 0.013 nM, respectively.

B5: [N-terminal(C20 diacid-gGlu), des1, 4G, 9V, 12K, 15Q, 21Q, 23Y, 25P, 30S, 31G, 32T, 33Y]mimylin (peptide)
peptide: {C20 diacid-γGlu}-ASGLSTAVLGKLSQELHELQTYPPTETGSGTY-NH2
SMILES: CC(C)C[C@H](NC(=O)CNC(=O)[C@H](CO)NC(=O)[C@H](C)NC(=O)CC[C@H](NC(=O)CCCCCCCCCCCCCCCCCCC(=O)O)C(=O)O)C(=O)N[C@@H](CO)C(=O)N[C@H](C(=O)N[C@@H](C)C(=O)N[C@H](C(=O)N[C@@H](CC(C)C)C(=O)NCC(=O)N[C@@H](CCCCN)C(=O)N[C@@H](CC(C)C)C(=O)N[C@@H](CO)C(=O)N[C@@H](CCC(N)=O)C(=O)N[C@@H](CCC(=O)O)C(=O)N[C@@H](CC(C)C)C(=O)N[C@@H](Cc1c[nH]cn1)C(=O)N[C@@H](CCC(=O)O)C(=O)N[C@@H](CC(C)C)C(=O)N[C@@H](CCC(N)=O)C(=O)N[C@H](C(=O)N[C@@H](Cc1ccc(O)cc1)C(=O)N1CCC[C@H]1C(=O)N1CCC[C@H]1C(=O)N[C@H](C(=O)N[C@@H](CCC(=O)O)C(=O)N[C@H](C(=O)NCC(=O)N[C@@H](CO)C(=O)NCC(=O)N[C@H](C(=O)N[C@@H](Cc1ccc(O)cc1)C(N)=O)[C@@H](C)O)[C@@H](C)O)[C@@H](C)O)[C@@H](C)O)C(C)C)[C@@H](C)O
Consider B5, for which the IC50 worked out at 0.385 nM in assay [1] and 0.246 nM in assay [2].

B6: [N-terminal(C20 diacid-gGlu), des1, 4G, 15Q, 21Q, 23Y, 30S, 31Q, 32T, 33Y]mimylin (peptide)
peptide: {C20 diacid-γGlu}-ASGLSTAALGRLSQELHELQTYPRTETGSQTY-NH2
SMILES: CC(C)C[C@H](NC(=O)CNC(=O)[C@H](CO)NC(=O)[C@H](C)NC(=O)CC[C@H](NC(=O)CCCCCCCCCCCCCCCCCCC(=O)O)C(=O)O)C(=O)N[C@@H](CO)C(=O)N[C@H](C(=O)N[C@@H](C)C(=O)N[C@@H](C)C(=O)N[C@@H](CC(C)C)C(=O)NCC(=O)N[C@@H](CCCNC(=N)N)C(=O)N[C@@H](CC(C)C)C(=O)N[C@@H](CO)C(=O)N[C@@H](CCC(N)=O)C(=O)N[C@@H](CCC(=O)O)C(=O)N[C@@H](CC(C)C)C(=O)N[C@@H](Cc1c[nH]cn1)C(=O)N[C@@H](CCC(=O)O)C(=O)N[C@@H](CC(C)C)C(=O)N[C@@H](CCC(N)=O)C(=O)N[C@H](C(=O)N[C@@H](Cc1ccc(O)cc1)C(=O)N1CCC[C@H]1C(=O)N[C@@H](CCCNC(=N)N)C(=O)N[C@H](C(=O)N[C@@H](CCC(=O)O)C(=O)N[C@H](C(=O)NCC(=O)N[C@@H](CO)C(=O)N[C@@H](CCC(N)=O)C(=O)N[C@H](C(=O)N[C@@H](Cc1ccc(O)cc1)C(N)=O)[C@@H](C)O)[C@@H](C)O)[C@@H](C)O)[C@@H](C)O)[C@@H](C)O
Turning to B6, the IC50 amounted to 0.078 nM in assay [1] and 0.012 nM in assay [2].

As to {C18 diacid}-ASELSTAALGRLSAELHELATLPRTETGSGSP-NH2 [[N-terminal(C18 diacid), des1, 30S, 31G]mimylin], the IC50 was found to be 0.063 nM in assay [1] and 0.013 nM in assay [2].

B7: [des1, 16K(C20 diacid-gGlu), 30S, 31G]mimylin (peptide)
peptide: ASELSTAALGRLSAK([γGlu-C20 diacid])LHELATLPRTETGSGSP-NH2
modifications: N-terminus assumed
SMILES: CC(C)C[C@H](NC(=O)[C@H](C)NC(=O)[C@H](C)NC(=O)[C@@H](NC(=O)[C@H](CO)NC(=O)[C@H](CC(C)C)NC(=O)[C@H](CCC(=O)O)NC(=O)[C@H](CO)NC(=O)[C@H](C)N)[C@@H](C)O)C(=O)NCC(=O)N[C@@H](CCCNC(=N)N)C(=O)N[C@@H](CC(C)C)C(=O)N[C@@H](CO)C(=O)N[C@@H](C)C(=O)N[C@@H](CCCCNC(=O)CC[C@H](NC(=O)CCCCCCCCCCCCCCCCCCC(=O)O)C(=O)O)C(=O)N[C@@H](CC(C)C)C(=O)N[C@@H](Cc1c[nH]cn1)C(=O)N[C@@H](CCC(=O)O)C(=O)N[C@@H](CC(C)C)C(=O)N[C@@H](C)C(=O)N[C@H](C(=O)N[C@@H](CC(C)C)C(=O)N1CCC[C@H]1C(=O)N[C@@H](CCCNC(=N)N)C(=O)N[C@H](C(=O)N[C@@H](CCC(=O)O)C(=O)N[C@H](C(=O)NCC(=O)N[C@@H](CO)C(=O)NCC(=O)N[C@@H](CO)C(=O)N1CCC[C@H]1C(N)=O)[C@@H](C)O)[C@@H](C)O)[C@@H](C)O
Consider B7, for which the figures for the IC50 in assay [1] and in assay [2] were 1.3 nM and 0.065 nM, respectively.

For {C14 diacid-γGlu}-ASELSTAALGRLSAELHELATLPRTETGSGSP-NH2 [[N-terminal(C14 diacid-gGlu), des1, 30S, 31G]mimylin], the 50% inhibitory concentration (IC50) was 0.122 nM in assay [1] and 0.017 nM in assay [2].

With {C16 diacid}-ASELSTAALGRLSAELHELATLPRTETGSGSP-NH2 [[N-terminal(C16 diacid), des1, 30S, 31G]mimylin], the values for the IC50 in assay [1] and in assay [2] were 0.064 nM and 0.011 nM, respectively.
